Results as given in US20020150536, “Nucleic acid ligands to integrins” (GILEAD SCIENCES, INC., published 2002).

Experiments:
integrin alphaV beta3 [1] = biological target: T1, integrin alphaV beta3 (Homo sapiens, UniProt P06756;P06756;P05106 P06756:31-889,P06756:891-1048,P05106:27-788); assay: inhibition; inhibition of biotinylated vitronectin binding (10 nM), room temperature
Method: (§1) While the SELEX process identifies RNA sequences with high affinity for a particular target, the procedure used in this example was designed to bias for the recovery of ligand binding site inhibitors by the inclusion of a cRGD peptide competitor in the elution buffer. To test whether aptamer 17.16 could block the ligand binding site of αᵥβ₃ or αIIbβ₃, purified vitronectin and fibrinogen were biotinylated and incubated with one or both of the immobilized integrins in the presence or absence of varying concentrations of the aptamer or a non-binding control RNA. This was done as follows: purified integrin ligands, vitronectin and fibrinogen, were biotinylated according to (Smith et al. (1990) J. Biol. Chem. 265:12267-71). Briefly, proteins were dialyzed into 0.1 M NaHCO₃, 0.1 M NaCl. N-hydroxysuccinimido-LC-biotin (Pierce) was dissolved at 1 mg/mL in DMSO and added to the protein at a ratio of 0.1 mg biotin per 1 mg protein. The reaction was allowed to rotate at room temperature for 2 hours. Biotinylated proteins were dialyzed into phosphate-buffered saline and their concentrations determined by absorbance at 280 nm. […] Absorbance was read at 405 nm.

integrin alphaV beta3 [2] = biological target: T1, integrin alphaV beta3; assay: inhibition; inhibition of biotinylated fibrinogen binding (6 nM), room temperature
Method: (§2) An estimate of the maximum absorbance value was determined for each ligand/integrin pair in the absence of competitor. The baseline absorbance value was determined by adding 5 mM EDTA to the incubation buffer.
as §1

integrin alphaIIb beta3 [3] = biological target: T2, integrin alphaIIb beta3 (UniProt P08514;P08514;P05106 P08514:32-887,P08514:891-1039,P05106:27-788); assay: as above; details: tags: Enzyme Research Laboratories
Method: as §2, §1

integrin alphaIIb beta3 [4] = biological target: T2, integrin alphaIIb beta3; assay: affinity identical to alphaV beta3; platelet Kd of ~10 nM stated equivalent to purified alphaIIb beta3; details: tags: Enzyme Research Laboratories
Method: (§3) The affinity of individual RNAs and RNA pools for αᵥβ₃ was determined by titration of biotinylated RNA with a small quantity of immobilized integrin. Bound RNA was detected through the biotin moiety. Biotinylated RNA was prepared according to standard transcription protocols, but including a 5-fold molar excess of a 5′-biotin-modified GMP over GTP in the reaction mixture. Methods for synthesizing 5′-biotin-modified guanosine nucleotides are described in WO 98/30720 entitled “Bioconjugation of Oligonucleotides,” specifically incorporated herein by reference in its entirety. The modified nucleotide is incorporated at the 5′ end of the transcript in proportion to its representation in the guanosine pool. 96-well microtiter plates (Immulon 2, Dynatech Laboratories, Inc., Chantilly, Va.) were coated overnight at 4° C. with 100 μL purified αᵥβ₃ at a concentration of 0.25 μg/mL in 20 mM TrisHCl, pH 7.5, 150 mM NaCl, 1 mM MgCl₂, 2 mM CaCl₂, 0.1 mM MnCl₂. Coating concentrations were 0.8 μg/mL for αIIbβ₃ and 0.3 μg/mL for αᵥβ₅. Wells were blocked with 200 μL of a solution of 3% BSA in the same buffer (1 hour at room temperature) then rinsed 3 times with 200 μL binding buffer (50 mM TrisHCl, pH 7.5, 137 mM NaCl, 2.7 mM KCl, 1 mM MgCl₂, 2 mM CaCl₂, 0.1 mM MnCl₂, 0.1% BSA). […] Color development was monitored by absorbance at 405 nm.

[5] = biological target: integrin alphaIIb beta3 on human platelets (Homo sapiens, UniProt P08514;P08514;P05106 P08514:32-887,P08514:891-1039,P05106:27-788); assay: flow; EDTA-sensitive binding, same for resting and thrombin-activated platelets; Mg2+, Ca2+, room temperature
Method: Human platelets were chosen for this purpose because of their ease of isolation and their high level of expression of integrin αIIbβ₃. Because αIIbβ₃ undergoes a conformational change upon platelet activation, binding of the aptamer to both resting and thrombin-activated platelets was tested. […] Briefly, RNA was transcribed in the presence of a 5-fold molar excess of the initiator nucleotide guanosine-5′-O-(2-thiodiphosphate) (Calciochem), followed by conjugation of the gel-purified RNA to 5-iodoacetamidofluorescein (Pierce, Rockford, Ill.). Platelet-rich plasma was prepared from freshly-drawn citrated human blood by centrifugation at 1000 rpm for 15 minutes in a table top centrifuge. For activated platelets, cells were incubated for 15 minutes at room temperature at 2×10⁷/mL in calcium- and magnesium-free Dulbecco's PBS with 2.5 U/mL thrombin and 5 mM Gly-Pro-Arg-Pro (GPRP) to inhibit platelet aggregation. […] Resting cells were diluted similarly, without exposure to thrombin or GPRP. The activation state of resting and thrombin-treated cells was monitored by staining with fluorophore-conjugated antibodies to CD61 (β₃ integrin subunit), which binds to all platelets, and to CD62 (P-selectin), a marker of platelet activation. […] The incubation mixtures were applied directly to a Becton Dickinson FACSCalibur flow cytometer to determine the mean fluorescence intensity of the sample. […]

integrin alphaV beta5 = integrin alphaV beta5 (Homo sapiens, UniProt P06756;P06756;P18084 P06756:31-889,P06756:891-1048,P18084:24-799); assay: no binding observed to immobilized alphaV beta5; details: tags: Chemicon International
Method: as §3

integrin alphaV beta3 [6] = biological target: T1, integrin alphaV beta3; assay: microtiter plate, streptavidin-AP; Mg2+, Ca2+, Mn2+, pH 7.5, 37 C
Method: The affinity of individual RNAs and RNA pools for αᵥβ₃ was determined by titration of biotinylated RNA with a small quantity of immobilized integrin. Bound RNA was detected through the biotin moiety. Biotinylated RNA was prepared according to standard transcription protocols, but including a 5-fold molar excess of a 5′-biotin-modified GMP over GTP in the reaction mixture. Methods for synthesizing 5′-biotin-modified guanosine nucleotides are described in WO 98/30720 entitled “Bioconjugation of Oligonucleotides,” specifically incorporated herein by reference in its entirety. The modified nucleotide is incorporated at the 5′ end of the transcript in proportion to its representation in the guanosine pool. 96-well microtiter plates (Immulon 2, Dynatech Laboratories, Inc., Chantilly, Va.) were coated overnight at 4° C. with 100 μL purified αᵥβ₃ at a concentration of 0.25 μg/mL in 20 mM TrisHCl, pH 7.5, 150 mM NaCl, 1 mM MgCl₂, 2 mM CaCl₂, 0.1 mM MnCl₂. Coating concentrations were 0.8 μg/mL for αIIbβ₃ and 0.3 μg/mL for αᵥβ₅. Wells were blocked with 200 μL of a solution of 3% BSA in the same buffer (1 hour at room temperature) then rinsed 3 times with 200 μL binding buffer (50 mM TrisHCl, pH 7.5, 137 mM NaCl, 2.7 mM KCl, 1 mM MgCl₂, 2 mM CaCl₂, 0.1 mM MnCl₂, 0.1% BSA). Individual RNAs or RNA pools were denatured briefly at 93° C. in binding buffer without divalent cations or BSA, then serially diluted in the same buffer. 50 μL binding buffer containing 2×-concentrations of divalent cations and BSA were added to each well, followed by 50 μL RNA dilution. RNAs were allowed to incubate in the integrin-coated wells at 37° C. for 30-60 minutes. Unbound RNAs were removed by 3 rapid washes in binding buffer. To detect bound RNA, 100 μL of a 1:2500 dilution in binding buffer of streptavidin-alkaline phosphatase conjugate (Calbiochem) were incubated in each well for 30 minutes at room temperature, followed by three rapid washes, as above. 100 μL/well p-nitrophenyl phosphate (Sigma Chemical Co., St. Louis, Mo.) was added and incubated at room temperature for 30 minutes. Color development was monitored by absorbance at 405 nm.

T1 sequence (P06756 31-889, chain 1 of 3): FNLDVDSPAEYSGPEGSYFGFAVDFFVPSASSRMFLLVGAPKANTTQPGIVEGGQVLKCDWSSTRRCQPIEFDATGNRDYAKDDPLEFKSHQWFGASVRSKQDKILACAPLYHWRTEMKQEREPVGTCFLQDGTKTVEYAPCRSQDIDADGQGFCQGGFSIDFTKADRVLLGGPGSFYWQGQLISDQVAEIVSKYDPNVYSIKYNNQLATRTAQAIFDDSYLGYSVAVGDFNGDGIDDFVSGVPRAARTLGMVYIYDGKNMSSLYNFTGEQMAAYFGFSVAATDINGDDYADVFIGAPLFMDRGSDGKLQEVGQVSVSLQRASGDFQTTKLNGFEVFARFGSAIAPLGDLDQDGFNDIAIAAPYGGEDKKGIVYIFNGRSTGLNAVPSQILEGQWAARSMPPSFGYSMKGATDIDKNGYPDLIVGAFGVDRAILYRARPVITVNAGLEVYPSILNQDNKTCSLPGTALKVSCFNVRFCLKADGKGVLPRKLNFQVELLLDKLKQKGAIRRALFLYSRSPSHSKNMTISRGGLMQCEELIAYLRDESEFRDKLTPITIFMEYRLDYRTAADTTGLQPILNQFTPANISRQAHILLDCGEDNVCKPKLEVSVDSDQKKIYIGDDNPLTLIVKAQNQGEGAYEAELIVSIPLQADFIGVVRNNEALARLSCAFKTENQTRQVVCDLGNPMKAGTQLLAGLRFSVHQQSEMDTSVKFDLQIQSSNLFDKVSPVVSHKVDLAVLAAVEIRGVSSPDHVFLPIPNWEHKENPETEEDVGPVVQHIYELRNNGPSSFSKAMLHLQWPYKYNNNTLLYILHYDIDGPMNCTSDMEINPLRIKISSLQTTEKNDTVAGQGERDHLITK
T1 sequence (P06756 891-1048, chain 2 of 3): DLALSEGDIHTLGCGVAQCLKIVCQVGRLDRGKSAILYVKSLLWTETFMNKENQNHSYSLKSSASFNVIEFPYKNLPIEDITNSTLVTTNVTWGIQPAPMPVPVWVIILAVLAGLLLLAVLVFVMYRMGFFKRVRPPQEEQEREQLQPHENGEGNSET
T1 sequence (P05106 27-788, chain 3 of 3): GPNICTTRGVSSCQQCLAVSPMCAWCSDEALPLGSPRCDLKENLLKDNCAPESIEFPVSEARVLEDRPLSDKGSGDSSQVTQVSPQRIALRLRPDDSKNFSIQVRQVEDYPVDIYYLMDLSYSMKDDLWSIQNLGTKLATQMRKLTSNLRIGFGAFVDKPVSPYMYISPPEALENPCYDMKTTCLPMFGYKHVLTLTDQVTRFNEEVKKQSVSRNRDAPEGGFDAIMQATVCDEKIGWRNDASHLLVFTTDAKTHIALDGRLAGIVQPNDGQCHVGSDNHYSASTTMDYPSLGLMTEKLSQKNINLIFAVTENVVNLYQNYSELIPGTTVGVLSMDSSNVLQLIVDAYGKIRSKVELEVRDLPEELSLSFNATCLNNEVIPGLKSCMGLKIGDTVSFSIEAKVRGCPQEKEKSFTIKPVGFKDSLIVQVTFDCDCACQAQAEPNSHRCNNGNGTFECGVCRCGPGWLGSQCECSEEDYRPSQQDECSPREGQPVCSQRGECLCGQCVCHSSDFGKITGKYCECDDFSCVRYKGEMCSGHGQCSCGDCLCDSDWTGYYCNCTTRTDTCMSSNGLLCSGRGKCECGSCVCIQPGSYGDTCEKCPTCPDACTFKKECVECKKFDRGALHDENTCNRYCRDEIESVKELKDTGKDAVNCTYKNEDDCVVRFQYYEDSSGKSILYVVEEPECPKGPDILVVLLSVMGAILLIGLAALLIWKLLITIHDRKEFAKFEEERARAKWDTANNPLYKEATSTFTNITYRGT
Chain of integrin alphaV beta5 (P06756 31-889, chain 1 of 3): as the sequence (P06756 31-889, chain 1 of 3) above
Chain of integrin alphaV beta5 (P06756 891-1048, chain 2 of 3): as the sequence (P06756 891-1048, chain 2 of 3) above
Chain of integrin alphaV beta5 (P18084 24-799, chain 3 of 3): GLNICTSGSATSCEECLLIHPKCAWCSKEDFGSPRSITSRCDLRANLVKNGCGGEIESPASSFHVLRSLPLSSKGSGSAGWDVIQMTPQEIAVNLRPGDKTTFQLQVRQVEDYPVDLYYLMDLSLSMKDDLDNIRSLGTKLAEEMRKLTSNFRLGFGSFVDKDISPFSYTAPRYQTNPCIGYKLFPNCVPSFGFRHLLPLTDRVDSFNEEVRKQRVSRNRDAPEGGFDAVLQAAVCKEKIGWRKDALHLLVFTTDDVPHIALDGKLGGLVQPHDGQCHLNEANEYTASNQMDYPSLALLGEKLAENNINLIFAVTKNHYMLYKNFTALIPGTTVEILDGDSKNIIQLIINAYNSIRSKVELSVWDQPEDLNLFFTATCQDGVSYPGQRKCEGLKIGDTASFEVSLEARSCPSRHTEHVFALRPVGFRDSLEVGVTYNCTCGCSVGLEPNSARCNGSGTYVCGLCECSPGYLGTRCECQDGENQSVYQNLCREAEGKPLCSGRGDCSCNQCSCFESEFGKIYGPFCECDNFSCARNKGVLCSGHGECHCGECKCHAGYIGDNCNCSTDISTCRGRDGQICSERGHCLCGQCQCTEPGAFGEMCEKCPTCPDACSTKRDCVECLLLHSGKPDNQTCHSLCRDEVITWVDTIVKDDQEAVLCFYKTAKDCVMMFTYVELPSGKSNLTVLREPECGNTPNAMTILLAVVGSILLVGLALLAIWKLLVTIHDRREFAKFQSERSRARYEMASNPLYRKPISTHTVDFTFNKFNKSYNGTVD

B1: 17.16 (ssRNA)
RNA: GGGAGACAAGAAUAAACGCUCAAUUCAACGCUGUGAAGGGCUUAUACGAGCGGAUUACCCUUCGACAGGAGGCUCACAACAGGC
modifications: 2'-F C and U
- IC50 (integrin alphaV beta3 [1]): 4.7 nM
- IC50 (integrin alphaV beta3 [2]): 9.5 nM
- IC50 (integrin alphaIIb beta3 [3]): 6.5 nM
- Kd (integrin alphaIIb beta3 [4]): ~10 nM
- Kd [5]: ~10 nM
- binding result (integrin alphaV beta5): no binding
- Kd (integrin alphaV beta3 [6]): 8 nM
